Experimental data published in paper PMC8651795, “eIF2B-capturing viral protein NSs suppresses the integrated stress response” (Nature Communications, 2021).

Biological target: T1, human eIF2B (heterodecamer of two copies each of the α-, β-, γ-, δ- and ε-subunits) (human, UniProt Q14232;P49770;Q9NR50;Q9UI10;Q13144)
T1 construct: also called eIF2B decamer; copies: 2 + 2 + 2 + 2 + 2
Test: MST
Details: both partners purified

B1: Sandfly fever Sicilian virus (SFSV) nonstructural protein NSs, wild type (natural protein)
chain: MNSQYMFDYPAINIDVRCHRLLSSVSYVAYNKFHTHDVSTYEHCEIPLEKLRLGFGRRNSLADFYSLGELPASWGPACYFSSVKPMMYTFQGMASDLSRFDLTSFSRKGLPNVLKALSWPLGIPDCEIFSICSDRFVRGLQTRDQLMSYILRMGDSHSLDECIVQAHKKILQEARRLGLSDEHYNGYDLFREIGSLVCLRLINAEPFDTASSGEALDVRTVIRSYRASDPSTGLTEYGNSLWTPIHSHVDENDESSSDSDF
notes: also called SFSV NSs; wild-type SFSV NSs; source: E. coli T7 Express, purified (His-tag resin, HiTrap Q, Superdex 200); not shown: His-tag, C-terminal, kept
Work on B1 yielded a Kd of 16.9 ± 2.8 nM.
